Columns and labels:
[1] = target: T1, recombinant human domain 1-3His6 of the cation-independent mannose-6-phosphate receptor (human, UniProt P11717 41-467); assay: BLI exp 2, dissoc pH 7
T1 construct: Biotinylated (NHS-PEG4-biotin) for BLI; Glycosylated; also called hDom1-3His6; hCI-M6PRD1-D3

[2] = target: T1, recombinant human domain 1-3His6 of the …; assay: BLI exp 1, dissoc pH 5
Protocol: (§1) For each of the 11 anti-CI-M6PR VHHs, a biolayer interferometry (BLI) experiment was performed in which the hDom₁₋₃His₆ was biotinylated and coupled to streptavidin biosensor tips. Afterwards, the tips were incubated with serially diluted VHHs during the association phase and dissociation was performed at pH 7.4. Similarly, dissociation was performed at pH 7.0, pH 6.0 and pH 5.0 as well after regeneration of the biosensor tips. […] The anti-CI-M6PR antibody (clone 2G11) and GBP were used as positive and negative controls, respectively.
(§2) Analysis of the binding kinetics was performed using an Octet Red96 (FortéBio) device with Streptavidin SA Biosensor tips (VWR 733-2145). Therefore, 1 mL of human domain₁₋₃His₆ (0.5 mg/mL in 50 mM MES, 150 mM NaCl, pH 6.5) was incubated at room temperature for 30 minutes with EZ-Link™ NHS-PEG4-Biotin (1 mg) (Thermo Fischer A39259) and NaHCO₃ (100 mM). Biotinylated human domain₁₋₃His₆ was purified using a Zeba spin desalting Column™ (7K MWCO, 2 mL, Thermo Fischer 89890) and 1 μg/mL was used for immobilization on the Streptavidin SA Biosensor tips. The loaded tips were dipped into a particular anti-CI-M6PR VHH solution, serially diluted in kinetics buffer (0.2M NaH₂PO₄, 0.1M Na⁺ citrate, 0.01% BSA, 0.002% Tween20, pH 7.4). This was followed by dissociation of the particular anti-CI-M6PR VHH in kinetics buffer of pH 7.4, followed by regeneration in Glycine (10 mM, pH 3) and neutralisation. Same cycle was repeated but the dissociation was performed at pH 7.0, 6.0, 5.0, 4.5 and 4.0. A reference well and reference sensors were subtracted from ligand sensors afterwards and Savitsky-Golay filtering was applied on the data. Fitting of the data was performed using a 1:1 model, grouped per pH of dissociation.

[3] = target: T1, recombinant human domain 1-3His6 of the …; assay: ELISA on coated antigen, 2nd of 2 repeats
Protocol: FIGS. 4A-4B. Affinity of anti-CI-M6PR VHHs for recombinant human CI-M6PR Domain 1-3His₆ determined by ELISA. A & B. Measurements for each of the 11 anti-CI-M6PR VHHs in serial dilution binding to the coated human CI-M6PR Domain 1-3His₆ antigen. Detection was performed using an anti-VHH antibody coupled to HRP, and measured as the absorbance of the TMB substrate at 450 nm, correlating to the amount of bound VHH as plotted at the Y-axis. The Log₁₀ concentrations of the serially diluted VHHs were plotted at the X-axis. […] A & B represent replicates but using a different concentration of human CI-M6PR Domain 1-3His₆ (in (FIG. 4A): 0-0.75 μM and in (FIG. 4B): 0-1 μM).
We evaluated the affinity of the VHHs against the hDom₁₋₃His₆ using ELISA. Coated hDom₁₋₃His₆ was incubated with serially diluted VHH that was afterwards detected using an anti-VHH antibody, coupled to HRP.

[4] = target: T1, recombinant human domain 1-3His6 of the …; assay: BLI exp 1, dissoc pH 6
Protocol: as §1, §2

[5] = target: T2, recombinant mouse domain 1-3His6 of CI-M6PR (mouse, UniProt Q07113 36-418); assay: ELISA: coated mouse CI-M6PR Domain 1-3His6, serially diluted VHH, anti-VHH-HRP, TMB, Abs 450 nm; sigmoidal regression [table at the right]
T2 construct: Genbank NM_010515.2); Range includes the signal peptide; also called mDom1-3His6; mCI-M6PRD1-D3
T2 sequence (Q07113 other isoform, or with tags, fused parts or gaps): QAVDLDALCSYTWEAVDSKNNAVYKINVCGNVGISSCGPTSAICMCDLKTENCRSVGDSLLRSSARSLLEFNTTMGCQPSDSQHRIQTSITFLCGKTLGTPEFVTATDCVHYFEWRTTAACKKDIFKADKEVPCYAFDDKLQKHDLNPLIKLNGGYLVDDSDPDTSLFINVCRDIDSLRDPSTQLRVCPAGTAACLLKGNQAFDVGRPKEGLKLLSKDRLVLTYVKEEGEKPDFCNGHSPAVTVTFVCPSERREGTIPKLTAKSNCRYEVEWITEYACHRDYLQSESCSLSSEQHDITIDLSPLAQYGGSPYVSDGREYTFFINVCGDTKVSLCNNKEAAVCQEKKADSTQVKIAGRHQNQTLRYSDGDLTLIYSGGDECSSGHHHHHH
Protocol: FIGS. 5A-5B. Affinity of anti-CI-M6PR VHHs for recombinant mouse CI-M6PR Domain 1-3His₆ determined by ELISA. (FIG. 5A) Measurement for each of the 11 anti-CI-M6PR VHHs in serial dilution binding to the coated mouse antigen. Detection was performed using an anti-VHH antibody coupled to HRP, and measured as the absorbance of the TMB substrate at 450 nm, correlating to the amount of bound VHH as plotted at the Y-axis. The Log₁₀ concentrations of the serially diluted VHHs were plotted at the X-axis.
To evaluate the cross-reactivity of the anti-CI-M6PR nanobodies between the human and mouse CI-M6PR domain 1-3His₆ antigen, ELISA was performed with the eleven serially diluted anti-CI-M6PR nanobodies. […] By performing sigmoidal regression on the derived absorbance curves, half-maximal effective concentration (EC₅₀) values of each VHH were acquired, representing the required concentration to occupy 50% of the coated antigen. As a negative control, GBP was included in the assay.

| Binder | koff [1] [s⁻¹] | kon [1] [M⁻¹ s⁻¹] | Kd [2] [nM] | koff [2] [s⁻¹] | kon [2] [M⁻¹ s⁻¹] | EC50 [3] [nM] | Kd [4] [nM] | koff [4] [s⁻¹] | kon [4] [M⁻¹ s⁻¹] | EC50 [5] [nM] |
| --- | --- | --- | --- | --- | --- | --- | --- | --- | --- | --- |
| anti-CI-M6PR VHH11 (VHH, His6-tagged; made in Pichia pastoris) VHH: QVQLQESGGGLVQAGDSLKLSCTASGPTFSEITGGWFRQVPGKEREFVASISSTGITTYYTDSVKGRFTVSRDNAKNTMYLQMNSLKPEDTGVYYCAARSTSRSIAITVGYDYWGQGTQVTVSS | 0.00394 | 194000 | 113 | 0.0253 | 225000 | 30.5 | 34.2 | 0.00665 | 195000 | 330 |
| anti-CI-M6PR VHH1 (VHH, His6-tagged; made in Pichia pastoris, later also in E. coli WK6) VHH: QVQLQESGGGLVQPGGSLRLSCVASGFTFDRYWMNWLRQIPGKEIEWVSTINTGGTGTYYDDSVKGRFSISRDDAKNTLYLTMNSLKTEDTAVYYCARGATYYRGNSAIRGQGTQVTVSS | 0.0021 | 1.5e+06 | 24.7 | ~0.0988 | 4e+06 | 19.4 | 12.7 | ~0.0165 | 1.3e+06 | 355 |
| anti-CI-M6PR VHH9 (VHH, His6-tagged; made in Pichia pastoris) VHH: QVQLQESGGGLVQAGGSLRLSCAASGTILSIKTMGWYRQAPGKEREWVATITSSSIPMYADSVKGRFTISRDDAKNTVYLQMNSLKPEDTGVYYCNAPWTDYWGQGTQVTVSS | 0.00051 | 379000 | 84.1 | 0.0496 | 590000 | 0.251 | 0.674 | 0.00122 | 1.81e+06 | 2750 |
| anti-CI-M6PR VHH10 (VHH, His6-tagged; made in Pichia pastoris) VHH: QVQLQESGGGSVQAGGSLRLSCAPAGRTFSRIRMGWFRQAPGKEREFVAAISSGGLSYYADSMKGRFTISRDNAKNTVLLQMNSLEPDDTAVYYCAAVLNDYIDDYVARNPTLYDYWGQGTQVTVSS | 0.00148 | 99300 | – | 0.0106 | 91100 | 0.224 | – | 0.00205 | 39100 | 1620 |
| anti-CI-M6PR VHH8 (VHH, His6-tagged (Pichia pastoris)) VHH: QVQLQESGGGLVQAGGSLRLSCEASGRTFNTYNWGWFRQAPGKEREFVAAIRWSSSKTSYADSVKGRFTISRDNAKNTIYLQMNSLKPEDTAVYYCAASIVDFTTNPSHFGSWGQGTQVTVSS | 0.000976 | 404000 | 109 | 0.0328 | 302000 | 0.165 | 12.7 | 0.00293 | 231000 | 595 |

Further binders by falling Kd [2], results first:

| koff [1] [s⁻¹] | kon [1] [M⁻¹ s⁻¹] | Kd [2] [nM] | koff [2] [s⁻¹] | kon [2] [M⁻¹ s⁻¹] | EC50 [3] [nM] | Kd [4] [nM] | koff [4] [s⁻¹] | kon [4] [M⁻¹ s⁻¹] | EC50 [5] [nM] | Binder |
| --- | --- | --- | --- | --- | --- | --- | --- | --- | --- | --- |
| 0.013 | 130000 | 11.7 | 0.0542 | 4.62e+06 | 1.19 | 8.75 | 0.0321 | 3.67e+06 | – | anti-CI-M6PR VHH7 (VHH, His6-tagged (Pichia pastoris)) VHH: QVQLQESGGGLVQPGGSLRLSCAASGIIFSDNRMDWYRQAPGKQREWVATLASYGWKTYADSVKGRFTISRDNTKNTVYLRMNSLKPEDTAVYYCKASSPVLNDIWGQGTQVTVSS |
| 0.00101 | 316000 | 10 | 0.00729 | 729000 | 70.1 | 3.18 | 0.00101 | 316000 | 873 | anti-CI-M6PR VHH4 (VHH, His6-tagged; made in Pichia pastoris) VHH: QVQLQESGGGLVQAGGSLRLSCAASGRTFSNYVMGWFRQAPGKEREFVGSISQGGKMTYYPDSVKGRFTISRDNAKNTMYLQMDGLKPEDTAVYYCAVSRGYPMVRVSEVDYWGQGTQVTVSS |
| 0.00242 | 392000 | 8.5 | 0.0156 | 1.84e+06 | – | 1.56 | 0.00242 | 1.55e+06 | 9750 | anti-CI-M6PR VHH6 (VHH, His6-tagged; made in E. coli) VHH: QVQLQESGGGLVQAGGSLRLSCAVSGSISSIGGMGWFRQAPGKQREFVAVILNNSGMTSYADSVKGRFTISRGNSKNTMYLQMNSLKPEDTAVYYCNYSGYWGQGTQVTVSS |
| 0.00019 | 1.5e+06 | 5.76 | 0.00861 | 1.5e+06 | 0.0647 | 0.0111 | 1.52e-05 | 1.38e+06 | 562 | anti-CI-M6PR VHH5 (VHH, His6-tagged; made in Pichia pastoris, later also in E. coli WK6) VHH: QVQLQESGGGLVQAGGSLKLSCAAAGRTFSRLAMGWFRQAPGKEREFVAAISENGDSIHYSDSVKGRFAVSRDNAKNTVYLQMNSLKPEDTAIYYCAADRAAYYCSGSGCYPSRAPAAASYDYWGQGTQVTVSS |
| 0.000844 | 53000 | 1.36 | 0.00149 | 1.1e+06 | 0.104 | 0.27 | 0.000851 | 3.16e+06 | 670 | anti-CI-M6PR VHH3 (VHH, His6-tagged; made in Pichia pastoris) VHH: QVQLQESGGGLVQPGGSLRLSCAAFGLNFKNFDMIWFRQAPGEERDIVAAISSSSSTIWYEDSVKGRFTISRDNAKNTVYLQMNSLKPEDTAVYYCAAALTSWRRPDYWGQGTQVTVSS |
